Broadly, the Kd is the free concentration of one partner at which half of the binding sites on the other are occupied at equilibrium, for simple one-to-one binding.

Holding throughout (conditions): both partners purified
In assay [1] the target is T1, recombinant human PCSK9 with 6x His tag (proprotein convertase subtilisin/kexin type-9) (human, UniProt Q8NBP7 31-692).
T1 construct: proprotein convertase subtilisin/kexin type-9 (PCSK9), human, recombinant; written here as one chain; also called rhPCSK9-His; PCSK9-His
The experiment in a line: BLI; BLItz system; PCSK9-His (hPCSK9, 500 nM, 120 s loading) immobilised on an anti-Penta-HIS sensor; association 120 s, dissociation 120 s; sensorgrams fit globally to a 1:1 binding model. (Biolayer interferometry detects binding as a change in optical thickness at a sensor tip.)

For assay [2], the target named is T2, recombinant human PKCδ (protein kinase C delta) (human, UniProt Q05655 1-676).
T2 construct: protein kinase C delta (PKCδ), human, recombinant; also called rhPKCδ; source: bought: Abcam (ab60844)
T2 sequence (Q05655 whole entry, stated change not applied): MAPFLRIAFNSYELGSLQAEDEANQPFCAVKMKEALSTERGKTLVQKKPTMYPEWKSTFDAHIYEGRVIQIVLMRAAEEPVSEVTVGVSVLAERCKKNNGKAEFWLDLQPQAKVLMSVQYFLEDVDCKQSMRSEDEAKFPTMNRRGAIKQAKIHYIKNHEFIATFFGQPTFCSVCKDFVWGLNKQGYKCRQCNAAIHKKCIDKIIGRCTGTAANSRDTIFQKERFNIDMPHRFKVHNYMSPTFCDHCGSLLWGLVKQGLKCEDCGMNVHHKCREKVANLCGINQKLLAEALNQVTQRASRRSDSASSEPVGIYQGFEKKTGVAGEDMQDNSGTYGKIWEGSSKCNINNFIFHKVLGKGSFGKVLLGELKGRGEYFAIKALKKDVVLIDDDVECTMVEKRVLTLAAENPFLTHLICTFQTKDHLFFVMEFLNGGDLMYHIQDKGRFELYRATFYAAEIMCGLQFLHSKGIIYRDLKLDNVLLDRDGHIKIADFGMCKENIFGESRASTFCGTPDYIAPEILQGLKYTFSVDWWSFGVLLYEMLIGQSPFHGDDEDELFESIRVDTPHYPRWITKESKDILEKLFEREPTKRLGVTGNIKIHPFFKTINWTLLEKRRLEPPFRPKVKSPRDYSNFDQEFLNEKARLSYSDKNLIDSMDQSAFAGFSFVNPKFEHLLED
The experiment in a line: BLI; BLItz system; CAP1-mFc immobilised on an anti-mouse IgG Fc (AMC) sensor; Syk or PKCδ in the association step (120 s), dissociation 120 s; global 1:1 binding model.

In assay [3] the target is T3, recombinant human Syk (spleen tyrosine kinase) (human, UniProt P43405 1-635).
T3 construct: spleen tyrosine kinase (Syk), human, recombinant; also called rhSyk; source: bought: Abcam (ab60886)
The description is as above.

B1: recombinant human CAP1 (adenylyl cyclase-associated protein 1) (natural protein, UniProt Q01518 1-475, looked up)
chain: MADMQNLVERLERAVGRLEAVSHTSDMHRGYADSPSKAGAAPYVQAFDSLLAGPVAEYLKISKEIGGDVQKHAEMVHTGLKLERALLVTASQCQQPAENKLSDLLAPISEQIKEVITFREKNRGSKLFNHLSAVSESIQALGWVAMAPKPGPYVKEMNDAAMFYTNRVLKEYKDVDKKHVDWVKAYLSIWTELQAYIKEFHTTGLAWSKTGPVAKELSGLPSGPSAGSCPPPPPPCPPPPPVSTISCSYESASRSSLFAQINQGESITHALKHVSDDMKTHKNPALKAQSGPVRSGPKPFSAPKPQTSPSPKRATKKEPAVLELEGKKWRVENQENVSNLVIEDTELKQVAYIYKCVNTTLQIKGKINSITVDNCKKLGLVFDDVVGIVEIINSKDVKVQVMGKVPTISINKTDGCHAYLSKNSLDCEIVSAKSSEMNVLIPTEGGDFNEFPVPEQFKTLWNGQKLVTTVTEIAG
notes: adenylyl cyclase-associated protein 1 (CAP1), human, recombinant; also called rhCAP1; hCAP1; source: bought: Abnova (H00010487-P01)
As for B1, the Kd in assay [1] was 32 nM.

B2: human CAP1 whose carboxyl-terminal end was conjugated with the Fc region of mouse immunoglobulin (Fc fusion, UniProt Q01518 1-475, looked up)
chain: MADMQNLVERLERAVGRLEAVSHTSDMHRGYADSPSKAGAAPYVQAFDSLLAGPVAEYLKISKEIGGDVQKHAEMVHTGLKLERALLVTASQCQQPAENKLSDLLAPISEQIKEVITFREKNRGSKLFNHLSAVSESIQALGWVAMAPKPGPYVKEMNDAAMFYTNRVLKEYKDVDKKHVDWVKAYLSIWTELQAYIKEFHTTGLAWSKTGPVAKELSGLPSGPSAGSCPPPPPPCPPPPPVSTISCSYESASRSSLFAQINQGESITHALKHVSDDMKTHKNPALKAQSGPVRSGPKPFSAPKPQTSPSPKRATKKEPAVLELEGKKWRVENQENVSNLVIEDTELKQVAYIYKCVNTTLQIKGKINSITVDNCKKLGLVFDDVVGIVEIINSKDVKVQVMGKVPTISINKTDGCHAYLSKNSLDCEIVSAKSSEMNVLIPTEGGDFNEFPVPEQFKTLWNGQKLVTTVTEIAG
notes: adenylyl cyclase-associated protein 1 (CAP1), human; also called CAP1-mFc; hCAP1-mFc; source: Expi293F, transfected, purified to homogeneity; not shown: Fc (mouse immunoglobulin), C-terminal, kept
On to B2, for which the Kd came out at 322 nM in assay [2] and 5.96 nM in assay [3].

For the origin of these results see PMC10981688, “PCSK9 stimulates Syk, PKCδ, and NF-κB, leading to atherosclerosis progression independently of LDL receptor” (Nature Communications, 2024).
